The record followed here is the Human Domainome abundance scans (Beltran et al. 2025).

± gives the uncertainty stated by the source.

First the molecules themselves.
B1: Chromodomain-helicase-DNA-binding protein 5, residues 338 to 390; numbered along this chain, Q8TDI0 (parent)
chain: YETDHQDYCEVCQQGGEIILCDTCPRAYHLVCLDPELEKAPEGKWSCPHCEKE

This series covers variants of B1. Briefly: abundance fitness (aPCA) (normalised: wild type 0, dead -1); higher = more abundant; growth selection in yeast, the domain comes from the species named. The note with it: Homo sapiens.
As for H49E, the abundance fitness was -0.225 ± 0.26.
On to H49R, for which the abundance fitness was -0.291 ± 0.16.
With T23A, the abundance fitness was -0.545 ± 0.13.
T23H: the abundance fitness is -0.397 ± 0.23.
In the case of T23L, the abundance fitness was -0.07 ± 0.12.
In the case of C12F it was -0.788 ± 0.15; in that of C12I, -0.912 ± 0.16.
For C12Y, the abundance fitness is -0.891 ± 0.15.
Turning to C12K, the abundance fitness was -0.652 ± 0.13.
In the case of C12H it was -0.539 ± 0.21; in that of C12T, -0.776 ± 0.12; in that of E53W, -0.526 ± 0.23.
On to E53Y, for which the abundance fitness was -0.219 ± 0.43.
To E53D belongs 0.016 ± 0.3; to E53V, -0.29 ± 0.18.
In the case of D34V it was -0.14 ± 0.1; in that of D34N, -0.354 ± 0.2.
In the case of D34S it was 0.093 ± 0.13.
For the variant D34M, the abundance fitness was -0.403 ± 0.19.
For D34K, the abundance fitness was -0.347 ± 0.24.
Turning to L30F, the abundance fitness was -0.063 ± 0.16.
Turning to L30C, the abundance fitness is -0.096 ± 0.18.
Regarding L30K, the abundance fitness stood at 0.04 ± 0.18.
Consider L30E, for which the abundance fitness is 0.059 ± 0.12.
In the case of L30R it was 0.085 ± 0.11.
L30G: the abundance fitness came to 0.092 ± 0.096.
For the variant L30V, the abundance fitness is -0.135 ± 0.093.
For the variant L30T, the abundance fitness is -0.222 ± 0.14.
As for L30I, the abundance fitness is -0.703 ± 0.33.
To L30P belongs -0.414 ± 0.2.
To H29G belongs -0.744 ± 0.099; to H29L, -1.14 ± 0.15; to H29P, -0.672 ± 0.16.
To H29Q belongs -0.887 ± 0.2; to H29S, -0.882 ± 0.15; to S46A, -0.11 ± 0.12.
In the case of S46Y, the abundance fitness was -0.335 ± 0.16.
S46Q: the abundance fitness is -0.331 ± 0.15.
To S46E belongs -0.023 ± 0.12.
To S46R belongs -0.143 ± 0.094; to S46G, -0.005 ± 0.1.
Take T3H: the abundance fitness was -0.407 ± 0.29.
Take T3N: the abundance fitness was -0.37 ± 0.23.
With T3C, the abundance fitness is -0.267 ± 0.18.
In the case of T3E it was 0.268 ± 0.18.
In the case of T3G it was 0.342 ± 0.091.
In the case of T3F it was 0.275 ± 0.19.
For T3M, the abundance fitness worked out at 0.567 ± 0.16.
In the case of Y8S it was 0.014 ± 0.11; in that of Y8N, 0.227 ± 0.18; in that of Y8V, 0.054 ± 0.1.
To Y8W belongs -0.111 ± 0.14; to Y8D, -0.199 ± 0.25.
For the variant Y8I, the abundance fitness is 0.241 ± 0.16.
With C47D, the abundance fitness was determined as 0.064 ± 0.21.
Take C47A: the abundance fitness is -0.841 ± 0.15.
For the variant C47Y, the abundance fitness was -1.2 ± 0.28.
In the case of C47E it was -0.9 ± 0.18; in that of C47S, -0.609 ± 0.12.
To C47I belongs -0.95 ± 0.38; to C47N, -0.953 ± 0.35.
Regarding C47R, the abundance fitness was -0.922 ± 0.11.
In the case of I18Q it was 0.28 ± 0.18.
Consider I18E, for which the abundance fitness is -0.454 ± 0.19.
In the case of I18V it was -0.286 ± 0.12; in that of I18N, 0.039 ± 0.22; in that of I18L, -0.098 ± 0.1.
To I18S belongs 0.065 ± 0.11.
Consider I18C, for which the abundance fitness is -0.508 ± 0.15.
As for Q14I, the abundance fitness was -0.385 ± 0.2.
To Q14Y belongs -0.001 ± 0.22.
To Q14S belongs 0 ± 0.1; to Q14T, 0.193 ± 0.14.
Consider Q14W, for which the abundance fitness is -0.237 ± 0.17.
Turning to Q14G, the abundance fitness is 0.118 ± 0.12.
In the case of Q14R it was -0.019 ± 0.099; in that of Q14L, -0.011 ± 0.11.
To Y1E belongs 0.321 ± 0.3; to Y1N, -0.336 ± 0.39; to Y1K, 0.125 ± 0.48.
On to Y1D, for which the abundance fitness is -0.839 ± 0.33.
Turning to R26L, the abundance fitness worked out at 0.154 ± 0.12.
Turning to R26A, the abundance fitness worked out at 0.009 ± 0.13.
Take R26W: the abundance fitness was -0.18 ± 0.14.
In the case of R26M it was 0.144 ± 0.14.
To R26C belongs 0.012 ± 0.15; to R26P, -0.87 ± 0.23; to P48E, -0.017 ± 0.12.
For the variant P48F, the abundance fitness was 0.124 ± 0.23.
As for P48C, the abundance fitness was 0.016 ± 0.16.
To A40M belongs 0.017 ± 0.14.
To A40Y belongs -0.23 ± 0.18.
Turning to A40E, the abundance fitness was -0.274 ± 0.17.
In the case of A40N it was 0.187 ± 0.16.
To A40T belongs -0.088 ± 0.13; to A40I, 0.131 ± 0.16; to A40S, 0.024 ± 0.11.
To A40G belongs -0.168 ± 0.11.
As to C32K, the abundance fitness is -1.03 ± 0.26.
To C32A belongs -1 ± 0.18; to C32D, -0.806 ± 0.27; to C32E, -0.52 ± 0.16.
To C32I belongs -0.786 ± 0.3.
C32G: the abundance fitness was -0.969 ± 0.14.
Regarding E51L, the abundance fitness was -0.105 ± 0.1.
With E51Y, the abundance fitness was -0.207 ± 0.21.
For the variant E51V, the abundance fitness was -0.209 ± 0.099.
Consider E51T, for which the abundance fitness amounted to 0.088 ± 0.14.
Consider E51N, for which the abundance fitness stood at 0.086 ± 0.19.
Take E17M: the abundance fitness came out at 0.1 ± 0.18.
To E17P belongs -0.445 ± 0.17; to E17V, -0.358 ± 0.1.
To E17R belongs -0.189 ± 0.1; to C24M, -0.772 ± 0.2.
To C24P belongs -0.437 ± 0.34; to C24N, -1.15 ± 0.48; to K39D, -0.208 ± 0.15.
Consider K39W, for which the abundance fitness is -0.242 ± 0.18.
K39G: the abundance fitness is 0.03 ± 0.089.
To K39P belongs -0.091 ± 0.19.
For the variant K39Q, the abundance fitness is -0.232 ± 0.3.
In the case of K39A it was -0.081 ± 0.11; in that of K39V, -0.189 ± 0.11; in that of K39M, 0.191 ± 0.2.
In the case of K39C it was -0.358 ± 0.21; in that of C21E, -1.08 ± 0.28.
To C21M belongs -0.701 ± 0.18; to C21D, -0.921 ± 0.17.
Turning to C21R, the abundance fitness is -0.929 ± 0.14.
Regarding C21S, the abundance fitness was -0.811 ± 0.13.
In the case of E36I it was -0.057 ± 0.24; in that of E36S, -0.163 ± 0.13; in that of E36K, 0.093 ± 0.17.
To E36P belongs 0.087 ± 0.13; to E36C, -0.067 ± 0.17.
In the case of E36L it was -0.093 ± 0.11.
In the case of E36T, the abundance fitness was -0.042 ± 0.15.
In the case of L37Y it was -0.237 ± 0.26.
In the case of L37R it was 0.115 ± 0.095; in that of L37S, 0.211 ± 0.11.
To L37E belongs -0.566 ± 0.18; to W45C, 0.157 ± 0.14.
In the case of W45M, the abundance fitness is 0.115 ± 0.17.
Take W45L: the abundance fitness was -0.157 ± 0.12.
In the case of W45P it was -0.086 ± 0.18; in that of W45Q, -0.29 ± 0.17.
For the variant W45V, the abundance fitness amounted to 0 ± 0.1.
To W45H belongs 0.283 ± 0.2.
Take P25W: the abundance fitness is -0.081 ± 0.16.
In the case of P25N it was -0.084 ± 0.22; in that of P25I, 0.064 ± 0.24; in that of P25G, -0.001 ± 0.11.
Turning to P25Q, the abundance fitness was -0.093 ± 0.23.
G15Q: the abundance fitness was -0.103 ± 0.15.
To G15T belongs -0.014 ± 0.14.
To G15P belongs -0.553 ± 0.19; to G15A, 0.176 ± 0.13.
To G15L belongs -0.209 ± 0.14; to G15W, -0.136 ± 0.14.
For G15Y, the abundance fitness was 0.083 ± 0.17.
To G15E belongs -0.112 ± 0.16.
To E2F belongs 0.018 ± 0.26; to E2S, 0.451 ± 0.15; to E2V, -0.484 ± 0.12.
To E2W belongs -0.092 ± 0.22.
With E2L, the abundance fitness worked out at 0.287 ± 0.16.
With E2H, the abundance fitness stood at 0.022 ± 0.36.
